T1: human FcγRIIb extracellular domain with C-terminal His tag (human, UniProt P31994 43-217)
T1 construct: extracellular domain; also called FcgRIIb; 2b; not shown: His tag attached to the C terminus
T1 sequence (looked up): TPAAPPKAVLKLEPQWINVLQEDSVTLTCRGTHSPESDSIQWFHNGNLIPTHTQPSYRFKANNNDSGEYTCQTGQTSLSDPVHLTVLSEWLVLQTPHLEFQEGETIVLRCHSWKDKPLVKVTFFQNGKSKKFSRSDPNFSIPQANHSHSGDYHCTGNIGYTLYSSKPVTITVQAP

T2: FcγRIIa H (human, UniProt P12318 34-217)
T2 construct: extracellular domain; also called FcγRIIa type H; 2aH; not shown: His tag at the C terminus
T2 sequence (looked up): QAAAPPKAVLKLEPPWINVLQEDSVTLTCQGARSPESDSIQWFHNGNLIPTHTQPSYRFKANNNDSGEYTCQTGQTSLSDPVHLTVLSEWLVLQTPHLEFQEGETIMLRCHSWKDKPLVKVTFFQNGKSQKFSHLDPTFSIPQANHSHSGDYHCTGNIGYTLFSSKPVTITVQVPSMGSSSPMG

T3: FcγRIIb (human, UniProt P31994 43-217)
T3 construct: extracellular domain; also called 2b; not shown: His tag at the C terminus
T3 sequence (looked up): T1 sequence (looked up)

B1: GpH7-B3 variant S267_09D/GpL16-k0 (Ho Ab) (antibody, human IgG1, kappa)
heavy: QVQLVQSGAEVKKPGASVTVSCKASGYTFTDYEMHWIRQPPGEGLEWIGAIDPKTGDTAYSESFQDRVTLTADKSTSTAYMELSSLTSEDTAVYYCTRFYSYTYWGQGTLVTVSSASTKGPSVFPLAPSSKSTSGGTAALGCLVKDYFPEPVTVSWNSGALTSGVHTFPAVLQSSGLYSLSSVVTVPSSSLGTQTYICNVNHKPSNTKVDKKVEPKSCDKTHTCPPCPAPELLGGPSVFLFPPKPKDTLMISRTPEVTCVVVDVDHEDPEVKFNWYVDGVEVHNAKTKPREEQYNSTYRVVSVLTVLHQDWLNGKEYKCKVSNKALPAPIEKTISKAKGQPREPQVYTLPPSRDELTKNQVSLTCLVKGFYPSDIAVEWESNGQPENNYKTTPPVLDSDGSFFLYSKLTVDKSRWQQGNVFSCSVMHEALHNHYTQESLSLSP
light: DIVMTQSPLSLPVTPGEPASISCQASESLVHSNRNTYLHWYLQKPGQSPQLLIYKVSNRFSGVPDRFSGSGSGTDFTLKISRVEAEDVGVYYCSQNTHVPPTFGQGTKVEIERTVAAPSVFIFPPSDEQLKSGTASVVCLLNNFYPREAKVQWKVDNALQSGNSQESVTEQDSKDSTYSLSSTLTLSKADYEKHKVYACEVTHQGLSSPVTKSFNRGEC
notes: Anti-glypican-3 IgG1; mutation in both H chains; also called S267D homodimerized antibody
B2: GpH7-B3 variant S239_18N/GpL16-k0 (Ho Ab) (antibody, human IgG1, kappa)
heavy: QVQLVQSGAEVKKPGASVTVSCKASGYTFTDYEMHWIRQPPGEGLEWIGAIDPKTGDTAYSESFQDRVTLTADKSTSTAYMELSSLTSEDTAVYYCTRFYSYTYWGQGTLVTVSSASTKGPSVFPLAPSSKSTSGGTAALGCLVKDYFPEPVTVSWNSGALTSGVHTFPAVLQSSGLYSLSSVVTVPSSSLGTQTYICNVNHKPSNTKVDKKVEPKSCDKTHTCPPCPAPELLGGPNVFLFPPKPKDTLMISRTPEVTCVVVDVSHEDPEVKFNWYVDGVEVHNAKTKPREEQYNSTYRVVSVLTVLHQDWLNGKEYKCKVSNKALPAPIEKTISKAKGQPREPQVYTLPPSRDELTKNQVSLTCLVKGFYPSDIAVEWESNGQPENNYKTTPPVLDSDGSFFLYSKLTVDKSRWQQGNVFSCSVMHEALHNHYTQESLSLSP
light: B1 light
notes: Anti-glypican-3 IgG1; mutation in both H chains; also called S239N homodimerized antibody
B3: GpH7-B3 variant S267_10E/GpL16-k0 (Ho Ab) (antibody, human IgG1, kappa)
heavy: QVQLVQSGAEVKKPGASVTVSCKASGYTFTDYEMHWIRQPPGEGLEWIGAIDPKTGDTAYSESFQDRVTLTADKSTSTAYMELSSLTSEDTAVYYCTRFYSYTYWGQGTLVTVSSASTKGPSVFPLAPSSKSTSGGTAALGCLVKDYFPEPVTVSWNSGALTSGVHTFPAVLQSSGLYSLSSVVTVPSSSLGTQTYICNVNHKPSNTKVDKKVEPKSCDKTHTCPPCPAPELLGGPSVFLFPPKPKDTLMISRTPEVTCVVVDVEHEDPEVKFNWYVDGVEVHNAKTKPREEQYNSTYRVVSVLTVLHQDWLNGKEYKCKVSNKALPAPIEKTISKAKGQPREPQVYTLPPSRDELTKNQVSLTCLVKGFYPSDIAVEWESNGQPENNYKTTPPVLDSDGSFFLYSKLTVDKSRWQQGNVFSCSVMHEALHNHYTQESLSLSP
light: B1 light
notes: Anti-glypican-3 IgG1; mutation in both H chains; also called S267E homodimerized antibody
B4: GpH7-B3 variant K334_19Q/GpL16-k0 (Ho Ab) (antibody, human IgG1, kappa)
heavy: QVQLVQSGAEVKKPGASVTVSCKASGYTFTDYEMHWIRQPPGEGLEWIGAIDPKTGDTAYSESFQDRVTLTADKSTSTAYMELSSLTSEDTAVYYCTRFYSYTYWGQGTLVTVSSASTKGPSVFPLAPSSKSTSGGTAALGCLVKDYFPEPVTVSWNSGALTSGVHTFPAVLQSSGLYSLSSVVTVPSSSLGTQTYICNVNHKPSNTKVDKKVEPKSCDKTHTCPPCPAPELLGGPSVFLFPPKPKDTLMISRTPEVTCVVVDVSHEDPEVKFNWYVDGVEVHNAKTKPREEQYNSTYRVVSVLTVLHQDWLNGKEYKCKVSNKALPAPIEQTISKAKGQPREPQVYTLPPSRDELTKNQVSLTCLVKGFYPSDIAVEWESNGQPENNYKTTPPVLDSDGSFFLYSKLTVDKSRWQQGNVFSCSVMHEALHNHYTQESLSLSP
light: B1 light
notes: Anti-glypican-3 IgG1; mutation in both H chains; also called K334Q homodimerized antibody
B5: GpH7-A5/GpH7-B3 variant Q295_07I/GpL16-k0 (antibody, human IgG1, kappa)
heavy 1: not shown
heavy 2: not shown
light: B1 light
notes: Heterodimerized IgG1; mutation in the GpH7-B3 chain only; also called He Ab
B6: GpH7-A5/GpH7-B3 variant S324_20W/GpL16-k0 (antibody, human IgG1, kappa)
heavy 1: not shown
heavy 2: not shown
light: B1 light
notes: as for B5
B7: GpH7-A5/GpH7-B3 variant S324_09D/GpL16-k0 (antibody, human IgG1, kappa)
heavy 1: not shown
heavy 2: not shown
light: B1 light
notes: as for B5
B8: GpH7-A5/GpH7-B3 variant T335_06M/GpL16-k0 (antibody, human IgG1, kappa)
heavy 1: not shown
heavy 2: not shown
light: B1 light
notes: as for B5
B9: GpH7-A5/GpH7-B3 variant Y300_07I/GpL16-k0 (antibody, human IgG1, kappa)
heavy 1: not shown
heavy 2: not shown
light: B1 light
notes: as for B5
B10: GpH7-A5/GpH7-B3 variant Y296_18N/GpL16-k0 (antibody, human IgG1, kappa)
heavy 1: not shown
heavy 2: not shown
light: B1 light
notes: as for B5
B11: GpH7-A5/GpH7-B3 variant Y296_09D/GpL16-k0 (antibody, human IgG1, kappa)
heavy 1: not shown
heavy 2: not shown
light: B1 light
notes: as for B5
B12: GpH7-A5/GpH7-B3 variant S324_02A/GpL16-k0 (antibody, human IgG1, kappa)
heavy 1: not shown
heavy 2: not shown
light: B1 light
notes: as for B5
B13: GpH7-A5/GpH7-B3 variant Y296_16H/GpL16-k0 (antibody, human IgG1, kappa)
heavy 1: not shown
heavy 2: not shown
light: B1 light
notes: as for B5
B14: GpH7-A5/GpH7-B3 variant T335_01G/GpL16-k0 (antibody, human IgG1, kappa)
heavy 1: not shown
heavy 2: not shown
light: B1 light
notes: as for B5
B15: GpH7-A5/GpH7-B3 variant Y300_08L/GpL16-k0 (antibody, human IgG1, kappa)
heavy 1: not shown
heavy 2: not shown
light: B1 light
notes: as for B5
B16: GpH7-A5/GpH7-B3 variant T335_02A/GpL16-k0 (antibody, human IgG1, kappa)
heavy 1: not shown
heavy 2: not shown
light: B1 light
notes: as for B5
B17: GpH7-A5/GpH7-B3 variant S324_15Y/GpL16-k0 (antibody, human IgG1, kappa)
heavy 1: not shown
heavy 2: not shown
light: B1 light
notes: as for B5
B18: GpH7-A5/GpH7-B3 variant Y296_04F/GpL16-k0 (antibody, human IgG1, kappa)
heavy 1: not shown
heavy 2: not shown
light: B1 light
notes: as for B5
B19: GpH7-A5/GpH7-B3 variant S324_10E/GpL16-k0 (antibody, human IgG1, kappa)
heavy 1: not shown
heavy 2: not shown
light: B1 light
notes: as for B5
B20: GpH7-A5/GpH7-B3 variant T335_05P/GpL16-k0 (antibody, human IgG1, kappa)
heavy 1: not shown
heavy 2: not shown
light: B1 light
notes: as for B5
B21: GpH7-A5/GpH7-B3 variant Y300_06M/GpL16-k0 (antibody, human IgG1, kappa)
heavy 1: not shown
heavy 2: not shown
light: B1 light
notes: as for B5
B22: GpH7-A5/GpH7-B3 variant S324_16H/GpL16-k0 (antibody, human IgG1, kappa)
heavy 1: not shown
heavy 2: not shown
light: B1 light
notes: as for B5
B23: GpH7-A5/GpH7-B3 variant S324_04F/GpL16-k0 (antibody, human IgG1, kappa)
heavy 1: not shown
heavy 2: not shown
light: B1 light
notes: as for B5

These binders were tested against T1, human FcγRIIb extracellular domain with … (assay: SPR (Biacore T100), antibody captured on antigen peptide chip, FcγRIIb as analyte; relative binding).
Method: (§1) Analysis of interaction between objective antibody and the FcγR was carried out using Biacore T100 (GE Healthcare). HBS-EP+ (GE Healthcare) was used as the running buffer, and the measurement temperature was set to 25° C. Chips produced by immobilizing the antigen peptide by the amine coupling method to a Series S Sencor Chip CM5 (GE Healthcare), or alternatively, chips produced by allowing preliminarily biotinylated antigen peptides to interact with and immobilize onto a Series S Sensor Chip SA (certified) (GE Healthcare) were used. Antibodies of interest were captured onto an antigen peptide-immobilized chip, and allowed to interact to each FcγR diluted with running buffer. To regenerate and repeatedly use the chip, the antibodies captured on the chip were washed off by reacting 10 mM glycine-HCl, pH 1.5.

Ho/Con_2b | Binder
327 % of control GpH7-B3/GpL16-k0 (=100) | B1
125 % of control GpH7-B3/GpL16-k0 (=100) | B2
396 % of control GpH7-B3/GpL16-k0 (=100) | B3
117 % of control GpH7-B3/GpL16-k0 (=100) | B4

What follows are binders tested against T2, FcγRIIa H (assay: SPR (Biacore), antibody captured, FcγR as analyte; binding relative to GpH7-A5/GpH7-B3/GpL16-k0 = 100).
Method: (§2) The heterodimerized antibodies He Abs in which one of the H chains was introduced with an alteration were assayed for their binding activities to each activating FcγR and inhibitory FcγR according to the method described in Example 4. […] The activating FcγRs in FIGS. 26, 27, 28, and 29 are FcγRIa, FcγRIIa (R), FcγRIIa (H), and FcγRIIIa, respectively.
as §1

He/Con_2aH | Binder
102 % of control | B5
103 % of control | B6
106 % of control | B7
103 % of control | B8
108 % of control | B9
104 % of control | B10
104 % of control | B11
102 % of control | B12
104 % of control | B13
103 % of control | B14
108 % of control | B15
101 % of control | B16
102 % of control | B17
100 % of control | B18
103 % of control | B19
108 % of control | B20
105 % of control | B21
102 % of control | B22
101 % of control | B23

What follows are binders tested against T3, FcγRIIb in the same assay as above.
Method: as §2, §1

He/Con_2b | Binder
84.3 % of control | B5
87.5 % of control | B6
85.8 % of control | B7
99.4 % of control | B8
74.5 % of control | B9
91.5 % of control | B10
98.9 % of control | B11
78.3 % of control | B12
92.2 % of control | B13
96.7 % of control | B14
73.6 % of control | B15
94 % of control | B16
88.2 % of control | B17
99.2 % of control | B18
77.4 % of control | B19
99.9 % of control | B20
84.3 % of control | B21
83.5 % of control | B22
89.1 % of control | B23

Reference: US20150344570A1 (published 2015)
